From PMC3167627

Target: Mcm2WT-7 (Mcm2-7) (Saccharomyces cerevisiae, UniProt P29469;P24279;P30665;P29496;P53091;P38132 1-868;1-971;1-933;1-775;1-1017;1-845)
Assay: EMSA

B1: poly-dT60 (ssDNA)
DNA: TTTTTTTTTTTTTTTTTTTTTTTTTTTTTTTTTTTTTTTTTTTTTTTTTTTTTTTTTTTT
Q: Does B1 bind?
A: binds
